Columns and labels:
TFIIB = TFIIB (UniProt Q00403); test: FLAG co-immunoprecipitation, TFIIB immunoblot; conditions: reference: FLAG-WT-HSF1
[1] = target: T1, FLAG-tagged WT-HSF1 (human), Q00613; test: cross-linking; HEK-293 cells transfected for 48 h with WT- or T142A-HSF1 with or without AKT1 or CK2; cells fixed with 1 mM EGS for 30 min at RT, quenched with 10 mM Tris pH 7.5, RIPA lysate, SDS/PAGE, immunoblot for HSF1 trimers; conditions: remark: other sources report otherwise
T1 chain: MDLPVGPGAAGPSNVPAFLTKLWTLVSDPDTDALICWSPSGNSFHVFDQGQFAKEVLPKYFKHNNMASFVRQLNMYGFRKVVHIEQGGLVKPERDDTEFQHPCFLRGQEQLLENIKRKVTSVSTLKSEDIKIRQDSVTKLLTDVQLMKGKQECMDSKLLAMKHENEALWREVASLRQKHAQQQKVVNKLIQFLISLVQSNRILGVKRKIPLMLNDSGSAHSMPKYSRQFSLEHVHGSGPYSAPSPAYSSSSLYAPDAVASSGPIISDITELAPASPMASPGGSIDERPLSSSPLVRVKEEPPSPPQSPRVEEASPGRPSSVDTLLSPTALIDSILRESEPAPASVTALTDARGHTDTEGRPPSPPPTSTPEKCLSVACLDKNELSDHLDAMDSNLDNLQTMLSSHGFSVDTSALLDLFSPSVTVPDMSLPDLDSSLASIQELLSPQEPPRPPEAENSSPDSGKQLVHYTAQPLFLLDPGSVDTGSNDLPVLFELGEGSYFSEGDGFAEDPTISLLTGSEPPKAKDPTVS

[2] = target: T1, FLAG-tagged WT-HSF1 (human), Q00613; test: cross-linking + SEC; HEK-293 cells co-expressing AKT1 and WT- or T142A-HSF1, fixed with EGS; RIPA lysate on Superdex 200 Increase 10/300 GL in 50 mM Tris pH 8.0, 150 mM NaCl, 1% NP-40, 4 °C; fractions immunoblotted for HSF1; conditions: remark: other sources report otherwise

**Q.** “HSF1 (from UniProt Q00613) FLAG-S326A-HSF1” was tested. Which “binding against the reference” value (TFIIB; sites S326) did it give?
**A.** weaker

**Q.** For “HSF1 (from UniProt Q00613) FLAG-T527A-HSF1”, which “binding against the reference” value (TFIIB; sites T527) is on record?
**A.** lost

B1: FLAG-tagged WT-HSF1, Q00613 1-529 (natural protein)
chain: T1 chain
**Q.** With B1 as the molecule, how does the stoichiometry N [1] read?
**A.** 3

**Q.** What about the stoichiometry N [2] of the same molecule?
**A.** 3

From article PMC9309721
